The results in this text go back to the supplement of paper PMC9170038.

For the series, the system named is MS2 coat protein. The series can be described thus: apparent KD of MS2 coat protein; designed switch direction (-1 OFF switch, 1 ON switch): -1; higher = weaker reporter binding. The essentials: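 On Illumina chips, designed RNA switches with common flanks were made by stalled E. coli RNA polymerase. Titrations with SNAP-549-labelled MS2 coat protein, doubling from 0.7 or 1.5 nM to 3 µM, were done with no input, with 200 uM small-molecule ligand, or with an oligonucleotide input. Apparent KD is the median per design over clusters, from curve fits of normalised cluster fluorescence.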

Setting [1] is: Eterna round: R95, input ligand: microRNA oligo, concentration not stated.
[2] abbreviates: input ligand: microRNA oligo, concentration not stated.

Consider “AUAAUGUGAGGAUAUCAGUCGACUAGCCUCGGCUAGUCGACUGAGAAGGUACAUGAGGAUCACCCAUGUAGAUC [E4/20-A2] (Eterna round: R97, puzzle: Exclusion 4)”, for which the “apparent KD of MS2 coat protein” value worked out at 0.0843 µM (input ligand: FMN 200 uM) and 0.0264 µM (input ligand: none).

On to “AUAAUGUGAGGAUAUCAGUCGACUAGCCUCGGCUAGUCGACUGAGAAGGUACAUGAGGAUCACCCAUGUGGUUC [E4/11-B2] (Eterna round: R97, puzzle: Exclusion 4)”, for which the “apparent KD of MS2 coat protein” value (input ligand: FMN 200 uM) stood at 0.882 µM and the “apparent KD of MS2 coat protein” value (input ligand: none) worked out at 0.429 µM.

Take “AUAAUGUGAGGAUAUCAGUCGACUAGCGAUAGCUAGUCGACUGAGAAGGUACAUGAGGAUCACCCAUGUAGAUC [E4/20-A4] (Eterna round: R97, puzzle: Exclusion 4)”: the “apparent KD of MS2 coat protein” value was 0.0706 µM (input ligand: FMN 200 uM) and 0.031 µM (input ligand: none).

As to “AUAAUGUGAGGAUAUCGAGACUACUGCUUCGGCAGUAGUCUCGAGAAGGCACAUGAGGAUCACCCAUGUGAUCA [E4/2-A1] (Eterna round: R97, puzzle: Exclusion 4)”, the “apparent KD of MS2 coat protein” value is 0.0566 µM (input ligand: FMN 200 uM) and 0.685 µM (input ligand: none).

“AUACCACGAGGAUAUCGACUAUACCACAUGAGGAUCACCCAUGUUAUCCAUGUUUCGUUUCGAGAAGGCGUGGGUU [JR_E5_Sub073] (puzzle: Exclusion 5)”: the “apparent KD of MS2 coat protein” value under setting [1] was 0.0323 µM.

Regarding “AUAGAUCGAGUUAGGAUAUUGCAGGCCGAGUACAGCAAGAAGGAACAUGAGGAUCACCCAUGUAAACGUGGCUC [Eternabot (L1) Solution 53] (Eterna round: R97, puzzle: Brourd's mod of Exclusion 4)”, the “apparent KD of MS2 coat protein” value amounted to 0.0259 µM (input ligand: FMN 200 uM) and 0.0177 µM (input ligand: none).

Take “AUAGGAGGAGGAUAUACAUGAGGAUCACCCAUGUGAUCGCCGUAAAAUGCAGUUAGACGUAGAAGGUCUCCCGG [Eternabot (L2) Solution 77] (Eterna round: R97, puzzle: Exclusion 3)”: the “apparent KD of MS2 coat protein” value amounted to 0.0368 µM (input ligand: FMN 200 uM) and 0.0347 µM (input ligand: none).

“AUAUAGAUAGUCAGGAUAUGCUAGUGAUAACAGUAGCAGAAGGGACAUGAGGAUCACCCAUGUGGAUAGCGCAC [Brourd's EX4 #5] (Eterna round: R97, puzzle: Brourd's mod of Exclusion 4)”: the “apparent KD of MS2 coat protein” value (input ligand: FMN 200 uM) came to 0.139 µM and the “apparent KD of MS2 coat protein” value (input ligand: none) was determined as 0.0397 µM.

Turning to “AUAUAGAUGGUCAGGAUAUGCUAGUGAUAACAGUAGCAGAAGGGACAUGAGGAUCACCCAUGUGGAUACCGCAC [Brourd's EX4 #7] (Eterna round: R97, puzzle: Brourd's mod of Exclusion 4)”, the “apparent KD of MS2 coat protein” value (input ligand: FMN 200 uM) was 0.122 µM and the “apparent KD of MS2 coat protein” value (input ligand: none) turned out to be 0.0319 µM.

Regarding “AUAUUAAUAGUAAGGAUAUGCGUAUAUAUAAUUAUGCAGAAGGUACAUGAGGAUCACCCAUGUAUUAAUGUGUA [LRO-BmodExc4-02-Oppy's Opus] (Eterna round: R97, puzzle: Brourd's mod of Exclusion 4)”, the “apparent KD of MS2 coat protein” value turned out to be 0.0135 µM (input ligand: FMN 200 uM) and 0.013 µM (input ligand: none).

Consider “AUAUUAAUAUAGGAUAUCGAAUUUAUUAAUUAUCGAGAAGGAUAAACAUGAGGAUCACCCAUGUGGUAUCAUGG [Mat - Exclusion 6 - JL Mod - D39] (puzzle: Exclusion 6)”, for which, under setting [1], the “apparent KD of MS2 coat protein” value came out at 0.256 µM.

With “AUCAGCUCGUCAGGAUAUGCACAUGAGGAUCACCCAUGUAAGAUCAAGCUGCUUCGGCAGCAAGUGCAGAAGGGACGAGCUGAU [ENG2/9-B2] (Eterna round: R96, puzzle: Exclusion NG 2)”, the “apparent KD of MS2 coat protein” value came out at 0.151 µM (input ligand: FMN 200 uM), 0.177 µM under setting [2] and 0.229 µM (input ligand: none).

Turning to “AUCAGCUCGUGAGGAUAUACAUGAGGAUCACCCAUGUGGUCAAUAGCAGCUUCGGCUGCAUACAUGUAGAAGGCACGAGCUGAU [ENG2/7-A2] (Eterna round: R96, puzzle: Exclusion NG 2)”, the “apparent KD of MS2 coat protein” value is, setting by setting: (input ligand: FMN 200 uM) 0.0366 µM; under setting [2], 0.0585 µM; (input ligand: none) 0.0301 µM.

In the case of “AUCAGCUCGUGAGGAUAUAUAUACAUGAGGAUCACCCAUGUAAGAUCAGGCUUCGGCCAAUGUAUAUAGAAGGCACGAGCUGAU [ENG2/11-A3] (Eterna round: R96, puzzle: Exclusion NG 2)”, the “apparent KD of MS2 coat protein” value (input ligand: FMN 200 uM) was 0.403 µM, the “apparent KD of MS2 coat protein” value under setting [2] amounted to 0.535 µM and the “apparent KD of MS2 coat protein” value (input ligand: none) stood at 0.808 µM.

Turning to “AUCGUGCAGCUUUGCUGUACGAGUACAUGAGGAUCACCCAUGUAGGAUAUGGUACGCUUUGCGUGCUAGAAGGAUAUGUGUUAG [EX ENG3 1.43] (Eterna round: R96, puzzle: Exclusion NG 3)”, the “apparent KD of MS2 coat protein” value (input ligand: FMN 200 uM) turned out to be 0.0466 µM, the “apparent KD of MS2 coat protein” value under setting [2] worked out at 0.0348 µM and the “apparent KD of MS2 coat protein” value (input ligand: none) came out at 0.0442 µM.

Take “AUCUAGUCAGGAUAUACGAACCGAUGAAUCGGACGGAACGAACAUGAGGAUCACCCAUGUAGAAGGGACACUCA [Candy Rainbow 2] (puzzle: Exclusion 2)”: under setting [1], the “apparent KD of MS2 coat protein” value stood at 0.142 µM.

“AUCUCCUCUGUCAGGAUAUAUAAACUGUUGCAGUGGUAGAAGGGACAUGAGGAUCACCCAUGUAAUAUAAAUAA [Bivege] (puzzle: Brourd's mod of Exclusion 4)”: the “apparent KD of MS2 coat protein” value under setting [1] stood at 0.0266 µM.

For the sequence “AUGCCCUGAGGAUAUCUCAUCCCGCACAUGAGGAUCACCCAUGUUCUCCUCCGGGCUCCGAGAGAAGGCAGGCCUA [Armus7] (Eterna round: R97, puzzle: Exclusion 5)”, the “apparent KD of MS2 coat protein” value (input ligand: FMN 200 uM) came out at 0.0801 µM and the “apparent KD of MS2 coat protein” value (input ligand: none) was determined as 0.0535 µM.

On to “AUGCGCAAGCUUUUUGUUCACAUGAGGAUCACCCAUGUUAUGGUCGCCUGUGAGGAGCGAUAGCGUCUCCGACCUGA [Eternabot (Original) Solution 31] (Eterna round: R97, puzzle: Sensor, turn-off variant 1)”, for which the “apparent KD of MS2 coat protein” value by setting is: (input ligand: FMN 200 uM) 0.0357 µM; (input ligand: none) 0.0365 µM.

As for “AUGGACGCAGGAUAUACAUGAGGAUCACCCAUGUGAGGUAGGUAAGUAGGAAGUGAAGGUAGAAGGGCGAGAGA [JR_Exclu3_Sub096] (puzzle: Exclusion 3)”, the “apparent KD of MS2 coat protein” value under setting [1] was 0.0594 µM.

With “AUGGGUACUUUCGGAGCGACAUGAGGAUCACCCAUGUAUGUUGAGGAUAUCCACUGCUAAGGACGGGAGAAGGCAGUGUACUGU [Ex NG3 #83] (Eterna round: R96, puzzle: Exclusion NG 3)”, the “apparent KD of MS2 coat protein” value came to 0.0261 µM (input ligand: FMN 200 uM), 0.016 µM under setting [2] and 0.0264 µM (input ligand: none).

With “AUGUGACAUGAGGAUCACCCAUGUCAGGAUAUUUCCAAAAUAAAAUAAAACCGCGUGGAAAGAAGGGACGUGGU [EX1 A.8] (Eterna round: R97, puzzle: Exclusion 1)”, the “apparent KD of MS2 coat protein” value reads like this: (input ligand: FMN 200 uM) 0.0234 µM; (input ligand: none) 0.0217 µM.

With “AUGUUGCGAGGAUAUAUAAGGAGGUUAAAAUUUAUUAUGGAACAUGAGGAUCACCCAUGUAGAAGGUGCAUAAC [JR_Ex2_Sub038] (Eterna round: R97, puzzle: Exclusion 2)”, the “apparent KD of MS2 coat protein” value was 0.0496 µM (input ligand: FMN 200 uM) and 0.0557 µM (input ligand: none).

Regarding “AUUAAACAUGUAGGAUAUGCGUGGCAAAGCUAUGCAGAAGGACAUGAGGAUCACCCAUGUAAAAGCGUCUGCGUACAGAUGCAA [Mat - Exclusion NG 1 - Mod of JL - D86] (Eterna round: R96, puzzle: Exclusion NG 1)”, the “apparent KD of MS2 coat protein” value is 0.314 µM (input ligand: FMN 200 uM), 0.0307 µM under setting [2] and 0.0413 µM (input ligand: none).
